Source: patent publication US10975360B2, “Process for the modification of alkanes, fatty acids and fatty alcohols” (priority 2016, dated 2021)

Columns and labels:
[1] = Biotransformation of hexadecanoic acid using CFE of E. coli, Tris-HCl buffer; type: biochemical
Procedure: (§1) Expression of genes in E. coli was performed by using ZYP-5052 auto-induction medium (Table 1) with in the case of the CYP 1 mM 5-aminolevulinic acid and 0.05 mM FeCl3 added. The CYP505E3 culture was cultivated using baffled flasks and incubated at 20° C. and 180 rpm for 24 h, while the GDH, and HLADH expressing cultures were all cultivated at 25° C. and 200 rpm for 24 h. Cultures were harvested through centrifugation (6 000×g, 10 min) and 1 g (wet weight) resuspended in 2 ml, 5 ml or 10 ml Tris-HCl, Phosphate or MOPS buffer, as indicated, (pH 8, 200 mM) containing 100 mM of glucose and glycerol. CFEs were obtained by a single passage of the suspended cells through a One Shot Cell Disrupter (Constant Systems) at 207 MPa. The soluble fraction was separated from unbroken cells by centrifugation (20 000×g, 20 min).
(§2) The biotransformation reaction mixture (BRM) consisted of CYP and GDH CFE suspensions prepared from cells in Tris-HCl buffers (1 g wet weight in 2 ml buffer) mixed in a 1:1 ratio with 0.1 mM NADPH added. Dodecanoic acid, tetradecanoic acid, hexadecanoic acid, 1-tetradecanol and 1-hexadecanol (20 μl of a 255 mM stock solution in DMSO) were added to 40 ml amber glass vials containing 1 ml BRM to give final substrate concentrations of 5 mmol·LBRM^−1. These vials were placed on an orbital shaker at 20° C., 200 rpm, oscillation amplitude 26 mm. Vials were removed after 24 h for extraction. Biotransformations were stopped by adding 170 ul of 0.5M HCl, extracted with 2×500 μl EtOAc and subjected to GC-MS analysis. A sample of δ-dodecalactone in ethyl acetate (0.1 mM) was also methylated with TMSH and subjected to GC-MS analysis.

[2] = Biotransformation of 1-tetradecanol using CFE of E. coli, Tris-HCl buffer; type: biochemical; conditions: 5 mmol/L substrate, CFE of E. coli, Tris-HCl, 24 h
Procedure: as §1
as §2, with “Vials were removed after 24 h for extraction. Biotransformations were stopped by adding 170 ul of 0.5M HCl, extracted with 2×500 μl EtOAc and subjected to GC-MS analysis. A sample of δ-dodecalactone in ethyl acetate (0.1 mM) was also methylated with TMSH and subjected to GC-MS analysis.” left out

[3] = Time course of biotransformation of 50 mM C12 fatty acid using CFE of E. coli in MOPS buffer; type: biochemical; conditions: 50 mM dodecanoic acid, 0.2 μM CYP
Procedure: as §1, with “min). […]” for “min).”
After extraction aliquots (50 μl) of ethyl acetate extracts containing both decanoic acid and tetradecanol as internal standards were methylated for GC-MS analysis while the rest of the extracts were washed with a Na2CO3 (5% w/v) solution to remove the fatty acids. The washed ethyl acetate extracts were also analysed by GC-MS and the δ-dodecalactone and γ-dodecalactone concentrations determined from a standard curve.

[4] = type: biochemical
Procedure: To convert 1,5-dodecanediol to δ-dodecalactone 170 μL of an ethyl acetate extract containing 150 mM dodecanol and 5.5 mM 1,5-dodecanediol was placed in a 40 mL vial and the ethyl acetate evaporated by incubating the vial at 100° C. for 5 min. After evaporation of the ethyl acetate the dodecanol/dodecanediol mixture was resuspended in 1 mL of an HLADH expressing culture of E. coli permeabilized with Triton X100 (1% v/v was added and the cell suspension incubated at 37° C. for 10 min). This reaction mixture containing 1 mM of 1,5-dodecanediol and 25 mM of dodecanol was incubated at 30° C. and 180 rpm for 24 h. It was then extracted with ethyl acetate (2×0.5 mL) containing 2 mM undecanol as internal standard and analysed on a VF5 column using a GC with FID detector for quantification and a GC-MS with a Chiraldex G-TA column (30 m×0.25 mm ID) to determine enantioselectivity. The ethyl acetate extract contained 0.2 mM 1,5-dodecanediol and 0.65 mM δ-dodecalactone (R:S ratio 84:16, ee 67%) while the δ-dodecalactone produced from dodecanoic acid in previous experiments using CYP505E3 was an almost racemic mixture (R:S ratio 55:45, ee 10%) (FIG. 12).

B1: CYP505E3: self-sufficient cytochrome P450 monooxygenase from Aspergillus terreus, SEQ ID No 1 (protein, listed as Aspergillus terreus)
chain: MIKETEQIPGPRPLPVVGNLFDMDLEHGLECLIRLADDFGPLFQITINGEKQIFATSQALVDELCDESRFHKAVMGGLEKLRMLASDGLFTAYHGERGWGIAHRILVPAFGPLRIRNMFEEMNDVAQQLCLKWARQGSSTSINITDDFTRLTLDTIALCTMNFRLNSFYNNETMHPFVKSMLYVLRESDIQSMLPGIANCIRVKARSRMSKHIQLMRNMARGIIQERRDQAEPVDDLLNTLLNGRDPVTGEGMSDDLIINNVITFLIAGHETTSGLLSFTFYYLLQNPHILERAQNEVDEVTGGERITVQHLGRLTYIDAILKESLRLMPTAPAFTVTPKKPEVLGGAWAIDAGQAVNVLLPVCLRDRSVFGPDADEFRPERMLEENFSKLPPNSWKPFGNGERSCIGRAFAWQEAQLVVAMVLQTFDLVPDDPSYKLRIKETLTIKPDGFRVRATLRRGQSATGLSQGSMSASGATSSVASPGPPAATGAQSNPAGGQRISFFYGSNSGTCKALAHRLASSLMGRGFTEQKLAALDTVVGNLPTDQPVIIVTTSYDGRPTDDAEEFVRWLESKRPVLQGVSYAVFGCGHHDWAKTFYRIPILIDDLMHKAGATRLTALGTANAAVSDLFSDLELWEETNLLPALREAFPPSNSSDVESSEPHQLQICVSKPRRVDMHRGLVEAKVTAVRTLTSPDSPEKRHVEFHVQGDTTWRPGDHVNILPVNPLSTVSRVLAYFQLAPDHSITVNSFNTQGLPSATPVSATELFSSFVELSQPATRKNLKALAMAAESKTDEQELIRLHDSYDALVRDKRVSVLDILERFPSISLPIGIFISMLPPLRLRTYSLSMAPSFKPSHGSLTFSVINEPAWSGNGQYLGVGSNYLASLTPGSLLYLSPRPAKDAFHLPADQFNTPIIMICAGSGLAPFMGFIQERMTWLKQGRPLAKGLLFFGCRGPHLDDLYYEELSEFEDAGVVEVHRAYSRAPDDVRAKGCRHVQHRLVTEAEAVRDHWGRNAIVYVCGSSNMARGVQTVLEEILGTLPPERYVAEIF
With B1 the “products identified from hexadecanoic acid (GC-MS, methylated samples)” value ([1]; 5 mmol/L substrate, Tris-HCl, 24 h) was 9-hydroxy hexadecanoic acid, the “ω-7 hydroxylase activity C16FA” value ([1]; C16 fatty acid, GC-MS peak height) was “++ (++ 0.1 million < RA < 1 million)” and the “products detected from tetradecanol (GC-MS)” value [2] was 1,7-tetradecane diol and 1,8-tetradecane diol. The “lactone concentrations in the washed ethyl acetate samples” value ([3]; Na2CO3 washed, not methylated) was 0.6 mmol·LBRM^−1, the “lactone concentrations in the unwashed samples” value ([3]; unwashed, methylated) was 1.6 mmol·LBRM^−1 and the “δ-dodecalactone R:S ratio” value [4] was 55:45. It also gave a δ-dodecalactone ee [4] of 10%.
